In publication PMC7390872:

Molecular target: recombinant thioredoxin (rTRX) [thioredoxin: P0AA25]
Assay: SPR; BIAcore T200; anti-His-tag antibody amine-coupled to a CM5 chip captures the His-tagged recombinant protein (0.1 mg/mL, about 200 RU); ligands (0.1 mg/mL) injected at 10 μL/min for 180 s; HBS-EP pH 7.5 (10 mM HEPES, 150 mM NaCl, 3 mM EDTA, 0.005% P20); relative reaction value, RUs >10 considered positive

Sequence of recombinant thioredoxin (rTRX) [thioredoxin: P0AA25] (P0AA25 whole entry): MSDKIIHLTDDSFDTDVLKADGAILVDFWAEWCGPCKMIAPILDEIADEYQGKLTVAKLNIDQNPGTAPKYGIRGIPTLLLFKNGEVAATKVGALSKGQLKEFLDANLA

response units (relative reaction value): < 10 RUs
Substance: laminin protein
